# Measurements: the supplement of paper PMC11246515
# ± gives the standard deviation of the averaged measurements.
# Assay: total protein half-life in vivo (active degradation + dilution); higher = more stable protein
# [1] = E. coli NCM3722 delta-clpP delta-lon delta-hslV, growth: N-lim chemostat, doubling time 6 h
# [2] = E. coli NCM3722 delta-clpP, growth: N-lim chemostat, doubling time 6 h
# [3] = E. coli NCM3722 delta-smpB, growth: N-lim chemostat, doubling time 6 h
# [4] = wild type E. coli NCM3722, growth: C-lim chemostat, doubling time 3 h
# [5] = wild type E. coli NCM3722, growth: C-lim chemostat, doubling time 6 h
# [6] = wild type E. coli NCM3722, growth: C-lim chemostat, doubling time 12 h
# [7] = wild type E. coli NCM3722, growth: N-lim chemostat, doubling time 6 h
# [8] = wild type E. coli NCM3722, growth: N-lim chemostat, doubling time 12 h
# [9] = wild type E. coli NCM3722, growth: P-lim chemostat, doubling time 6 h
# [10] = wild type E. coli NCM3722, growth: P-lim chemostat, doubling time 12 h
# [11] = E. coli NCM3722 delta-hslV, growth: N-lim chemostat, doubling time 6 h
# [12] = E. coli NCM3722 delta-lon, growth: N-lim chemostat, doubling time 6 h
Sequence,total protein half-life in vivo [1] [h],total protein half-life in vivo [2] [h],total protein half-life in vivo [3] [h],total protein half-life in vivo [4] [h],total protein half-life in vivo [5] [h],total protein half-life in vivo [6] [h],total protein half-life in vivo [7] [h],total protein half-life in vivo [8] [h],total protein half-life in vivo [9] [h],total protein half-life in vivo [10] [h],total protein half-life in vivo [11] [h],total protein half-life in vivo [12] [h]
MQEIYRFIDDAIEADRQRYTDIADQIWDHPETRFEEFWSAEHLASALESAGFTVTRNVGNIPNAFIASFGQGKPVIALLGEYDALAGLSQQAGCAQPTSVTPGENGHGCGHNLLGTAAFAAAIAVKKWLEQYGQGGTVRFYGCPGEEGGSGKTFMVREGVFDDVDAALTWHPEAFAGMFNTRTLANIQASWRFKGIAAHAANSPHLGRSALDAVTLMTTGTNFLNEHIIEKARVHYAITNSGGISPNVVQAQAEVLYLIRAPEMTDVQHIYDRVAKIAEGAALMTETTVECRFDKACSSYLPNRTLENAMYQALSHFGTPEWNSEELAFAKQIQATLTSNDRQNSLNNIAATGGENGKVFALRHRETVLANEVAPYAATDNVLAASTDVGDVSWKLPVAQCFSPCFAVGTPLHTWQLVSQGRTSIAHKGMLLAAKTMAATTVNLFLDSGLLQECQQEHQQVTDTQPYHCPIPKNVTPSPLK,5.29 ± 0.17,–,–,–,–,–,–,–,–,–,–,–
MNSCDFRVFLQEFGTTVHLSLPGSVSEKERLLLKLLMQGMSVTEISQYRNRSAKTISHQKKQLFEKLGIQSDITFWRDIFFQYNPEIISATGSNSHRYINDNHYHHIVTPEAISLALENHEFKPWIQPVFCAQTGVLTGCEVLVRWEHPQTGIIPPDQFIPLAESSGLIVIMTRQLMKQTADILMPVKHLLPDNFHIGINVSAGCFLAAGFEKECLNLVNKLGNDKIKLVLELTERNPIPVTPEARAIFDSLHQHNITFALDDFGTGYATYRYLQAFPVDFIKIDKSFVQMASVDEISGHIVDNIVELARKPGLSIVAEGVETQEQADLMIGKGVHFLQGYLYSPPVPGNKFISEWVMKAGG,6.19 ± 0.079,5.64 ± 0.26,5.76 ± 0.27,3.346 ± 0.027,5.06 ± 0.71,10.4 ± 2.6,5.94 ± 0.41,10.9 ± 0.36,5.76 ± 0.1,12.3 ± 1.1,–,–
MHDANIRVAIAGAGGRMGRQLIQAALALEGVQLGAALEREGSSLLGSDAGELAGAGKTGVTVQSSLDAVKDDFDVFIDFTRPEGTLNHLAFCRQHGKGMVIGTTGFDEAGKQAIRDAAADIAIVFAANFSVGVNVMLKLLEKAAKVMGDYTDIEIIEAHHRHKVDAPSGTALAMGEAIAHALDKDLKDCAVYSREGHTGERVPGTIGFATVRAGDIVGEHTAMFADIGERLEITHKASSRMTFANGAVRSALWLSGKESGLFDMRDVLDLNNL,5.49 ± 0.1,4.89 ± 0.007,4.76 ± 0.23,2.91 ± 0.068,6.1 ± 0.19,12 ± 0.68,5.092 ± 0.023,9.28 ± 0.75,5.71 ± 0.34,12.5 ± 1.2,5.04 ± 0.21,5.38 ± 0.62
MKSKVLALLIPALLAAGAAHAAEVYNKDGNKLDLYGKVDGLHYFSDNSAKDGDQSYARLGFKGETQINDQLTGYGQWEYNIQANNTESSKNQSWTRLAFAGLKFADYGSFDYGRNYGVMYDIEGWTDMLPEFGGDSYTNADNFMTGRANGVATYRNTDFFGLVNGLNFAVQYQGNNEGASNGQEGTNNGRDVRHENGDGWGLSTTYDLGMGFSAGAAYTSSDRTNDQVNHTAAGGDKADAWTAGLKYDANNIYLATMYSETRNMTPFGDSDYAVANKTQNFEVTAQYQFDFGLRPAVSFLMSKGRDLHAAGGADNPAGVDDKDLVKYADIGATYYFNKNMSTYVDYKINLLDEDDSFYAANGISTDDIVALGLVYQF,–,–,–,3.6,6.9,11.9,–,–,–,–,–,–
MSLLNVPAGKDLPEDIYVVIEIPANADPIKYEIDKESGALFVDRFMSTAMFYPCNYGYINHTLSLDGDPVDVLVPTPYPLQPGSVIRCRPVGVLKMTDEAGEDAKLVAVPHSKLSKEYDHIKDVNDLPELLKAQIAHFFEHYKDLEKGKWVKVEGWENAEAAKAEIVASFERAKNK [P0A7A9],5.91 ± 0.78,4.83 ± 0.22,5.358 ± 0.02,3.48 ± 0.71,5.73 ± 0.47,10.6 ± 0.65,4.34 ± 0.4,8.63 ± 0.47,5.65 ± 1.4,14.4 ± 1.1,5.09 ± 0.49,6.36 ± 0.52
MSFDPTGYTLAHEHLHIDLSGFKNNVDCRLDQYAFICQEMNDLMTRGVRNVIEMTNRYMGRNAQFMLDVMRETGINVVACTGYYQDAFFPEHVATRSVQELAQEMVDEIEQGIDGTELKAGIIAEIGTSEGKITPLEEKVFIAAALAHNQTGRPISTHTSFSTMGLEQLALLQAHGVDLSRVTVGHCDLKDNLDNILKMIDLGAYVQFDTIGKNSYYPDEKRIAMLHALRDRGLLNRVMLSMDITRRSHLKANGGYGYDYLLTTFIPQLRQSGFSQADVDVMLRENPSQFFQ,4.42,–,3.08 ± 0.51,–,–,9.94,4.97,–,–,15.1,–,6.12
MKSKDTLKWFPAQLPEVRIILGDAVVEVAKQGRPINTRTLLDYIEGNIKKTSWLDNKELLQTAISVLKDNQNLNGKM,–,–,2.39,–,–,4.92,–,–,–,–,–,–
MFTIKTDDLTHPAVQALVAYHISGMLQQSPPESSHALDVQKLRNPTVTFWSVWEGEQLAGIGALKLLDDKHGELKSMRTAPNYLRRGVASLILRHILQVAQDRCLHRLSLETGTQAGFTACHQLYLKHGFADCEPFADYRLDPHSRFLSLTLCENNELP,–,1.46 ± 0.029,0.854 ± 0.023,–,–,–,1.03 ± 0.61,1.92,–,–,0.809,0.314
MSKLFWAMLSFITRLPVPRRWSQGLDFEHYSRGIITFPLIGLLLGAISGLVFMVLQAWCGAPLAALFSVLVLVLMTGGFHLDGLADTCDGVFSARSRDRMLEIMRDSRLGTHGGLALIFVVLAKILVLSELALRGESILASLAAACAVSRGTAALLMYRHRYAREEGLGNVFIGKIDGRQTCVTLGLAAIFAAVLLPGMHGVAAMVVTMVAIFILGQLLKRTLGGQTGDTLGAAIELGELVFLLALL,7.472 ± 0.028,6.699 ± 0.053,> 8,3.48 ± 0.11,5.85 ± 0.84,12.7 ± 1.4,5.87 ± 0.4,11.3,5.6,12.4 ± 1.2,6.15 ± 0.36,6.52
